Reference: patent US20250122278A1, “ANTI-INTERLEUKIN-9 ANTIBODY AND USE THEREOF” (GUANGDONG KEGUANDA PHARMACEUTICAL TECHNOLOGY CO., LTD., priority 2022, published 2025)
Substitutions are numbered along the chain they refer to.

Tests used:
[1] = test system: bleomycin mouse model of pulmonary fibrosis; assay: Bleomycin mouse pulmonary fibrosis model; assay type: in vivo; conditions: for inflammation score: FIG. 9B; for fibrosis score: Masson staining, FIG. 10B; for lung tissue structures (HE staining): antibody 100 μg i.p. every other day, pirfenidone 300 mg/kg intragastric daily
Method: (§1) 6 to 8-week-old male C57BL/6J mice (purchased from Guangdong Sijiajingda Biotechnology Co., Ltd., license No.: SCXK (Guangdong) 2020-0052) were grouped, modeled, and administered according to the protocols shown in Tables 6 and 7 below. The modeling with bleomycin (Nippon Kayaku, 15 mg powder, and dose: 1.5 mg/kg) and silica (SiO2, sigma, USA, S5631-500 g, and dose: 2.5 mg/mouse) was started on day 0 (DO). The administration was started on day 1 (D1), and normal saline was adopted as a solvent for an antibody. A positive drug pirfenidone (Beijing Kangdini Pharmaceutical Co., Ltd., 100 mg capsule) was adopted in a positive control group, and the humanized antibody hu.CA1 (VH1−VL2) of the present application was adopted in an anti-IL-9 antibody group.
(§2) A body weight of each mouse was measured every day. After the bleomycin model group was administered for 21 d and the silica model group was administered for 30 d, mice were sacrificed to collect lung tissues. The lung tissues each were stained to detect pathological changes in the lung tissues. Specifically, a degree of alveolar inflammation was detected through HE staining (an HE staining kit was purchased from Shanghai Beyotime Biotechnology, C0105M). A degree of pulmonary fibrosis was detected through Masson staining (a Masson staining kit was purchased from Nanjing Jiancheng Institute of Biological Engineering, D026-1-2). Scoring criteria for the HE staining and Masson staining were shown in Table 8 and Table 9 below, respectively (as shown in references: Matute-Bello G, Downey G, Moore B B, et al. An official American Thoracic Society workshop report: features and measurements of experimental acute lung injury in animals. Am J Respir Cell Mol Biol. 2011; 44 (5): 725-738. doi: 10.1165/rcmb.2009-0210ST and Lee Hyun Ju, Goo Jin Mo, Kim Na Ra et al. Semiquantitative measurement of murine bleomycin-induced lung fibrosis in in vivo and postmortem conditions using microcomputed tomography: correlation with pathologic scores—initial results. [J].Invest Radiol, 2008, 43: 453-60).

[2] = test system: silica mouse model of pulmonary fibrosis; assay: Silica mouse pulmonary fibrosis model; assay type: in vivo, C57BL/6J mice; conditions: for collagen fibers and fibrosis regions of lung tissues (Masson staining) / inflammation score / fibrosis score / lung tissue structures (HE staining): 30 d; for inflammation score: HE staining, FIG. 11B; for fibrosis score: Masson staining, FIG. 12B; for lung tissue structures (HE staining): antibody 100 μg i.p. every other day, pirfenidone 300 mg/kg intragastric daily
Method: as §1, §2

[3] = biological target: T1, IL-9-His recombinant protein (UniProt P15248 19-144); assay: ELISA on IL-9-His, 293F culture supernatant, antibody concentration 1 µg/mL
T1 construct: range 19-144; used as coating antigen in the ELISAs; also called IL9 (19-144)-His; not shown: His tag, C-terminal by the vector name

[4] = biological target: T1, IL-9-His recombinant protein; assay: ELISA on IL-9-His, 293F culture supernatant, antibody concentration 2 µg/mL
Method: (§3) ELISA was conducted according to a standard protocol to determine the affinity of a purified antibody for the IL-9-His recombinant protein. In short, the IL-9-His recombinant protein was diluted with sterile PBS and added at 100 μL/well to a 96-well plate. The plate was incubated at 4° C. overnight and then blocked with a blocking buffer. 100 μL of a purified anti-IL-9 antibody serially diluted was added to the plate, and the plate was incubated for 1 h at room temperature. PBS was added to a control well. The plate was washed with PBST 3 times. Then 100 μL of horseradish peroxidase (HRP)-labeled anti-mouse IgG H&L (BIODRAGON, CAT #BF03001) was added, and the plate was incubated for 1 h at room temperature. The plate was washed with PBST 3 times. Then a chromogenic reaction was conducted with a 3,3′,5,5′-tetramethylbenzidine (TMB) chromogenic solution at room temperature. An OD value in each well was read by a microplate reader. Data was processed with PRISM GraphPad, and curves were plotted. The EC₅₀ value for each candidate antibody was calculated.

[5] = biological target: T1, IL-9-His recombinant protein; assay: ELISA on IL-9-His, 293F culture supernatant, antibody concentration 1 µg/mL (second well)
Method: as §3

[6] = biological target: T1, IL-9-His recombinant protein; assay: ELISA on IL-9-His, 293F culture supernatant, antibody concentration 2 µg/mL (second well)
Method: as §3

[7] = biological target: T2, biotin-conjugated IL-9-Fc (Biotin-IL-9-Fc) (UniProt P15248 19-144, biotin-conjugated (sites not given)); assay: flow cytometry blocking assay (IL-9-IL-9R blocking determination): serially diluted chimeric antibody against the binding of Biotin-IL-9-Fc to 293-IL-9R cells (IL-9R), MFI; unit taken from the x axis, the table prints none
T2 construct: range 19-144; also called Fc-IL-9 recombinant protein; Fc-IL-9; not shown: Fc tag (Fc2 in the vector name pLVX-Fc2-IL9 (19-144)-Puro)

[8] = biological target: T3, IL-9 (Homo sapiens, UniProt P15248); assay: ELISA binding of humanized antibodies to the target antigen; conditions: ELISA of culture supernatant of 293F cells, control chimeric antibody CA1
T3 construct: pcDNA3.4-IL9 (19-144)-His (P15248); His (C); made in house; host or cells: 293F cells (transient transfection)
Method: ELISA was conducted according to a standard protocol to determine the affinity of a purified antibody for the IL-9-His recombinant protein. In short, the IL-9-His recombinant protein was diluted with sterile PBS and added at 100 μL/well to a 96-well plate. The plate was incubated at 4° C. overnight and then blocked with a blocking buffer. 100 μL of a purified anti-IL-9 antibody serially diluted was added to the plate, and the plate was incubated for 1 h at room temperature. PBS was added to a control well. The plate was washed with PBST 3 times. Then 100 μL of horseradish peroxidase (HRP)-labeled anti-mouse IgG H&L (BIODRAGON, CAT #BF03001) was added, and the plate was incubated for 1 h at room temperature. The plate was washed with PBST 3 times. Then a chromogenic reaction was conducted with a 3,3′,5,5′-tetramethylbenzidine (TMB) chromogenic solution at room temperature. An OD value in each well was read by a microplate reader. Data was processed with PRISM GraphPad, and curves were plotted. The EC50 value for each candidate antibody was calculated.
Humanized antibody expression vectors carrying a designed heavy-chain or light-chain sequence were transiently transfected into 293F cells in pairs, and then a resulting culture supernatant was collected. According to a standard protocol (with reference to part 5.1 in Example 1), with a human-mouse chimeric antibody CA1 constructed with VH and VL of the original murine antibody as a control, the binding of a humanized antibody to a target antigen was detected by ELISA. The method for ELISA was the same as described in 5.1 of Example 1. […] In the follow-up experiments, the four combinations of VH1−VL2, VH1−VL4, VH2−VL4, and VH3−VL4 (hu.CA1 to hu.CA4) were taken as examples for antibody purification and function testing. […]

[9] = biological target: T4, IL-9 antigen protein (Homo sapiens, UniProt P15248); assay: ForteBio (BLI) affinity detection; assay type: binding; conditions: antibody immobilized on Protein A sensor, antigen 7.81-125 nM
T4 construct: pcDNA3.4-IL9 (19-144)-His (P15248) and pLVX-Fc2-IL9 (19-144)-Puro; made in house; host or cells: 293F cells (transient transfection)
Method: The affinity of a humanized antibody was detected by ForteBio (BLI). The chimeric (as a control) and humanized antibodies were immobilized with a Protein A sensor (SARTORIUS, Cat #18-5010) at an immobilization height of about 1 nm. An antigen protein sample was serially diluted with PBS to 125 nM, 62.5 nM, 31.25 nM, 15.625 nM, 7.81 nM, and 0 nM. An affinity detection procedure was as follows: equilibration for 60 s, binding for 180 s, and dissociation for 180 s.

[10] = biological target: T1, IL-9-His recombinant protein; assay: BLI (ForteBio), antibody on Protein A sensor, antigen 7.81-125 nM in solution
Excerpt: The affinity of a humanized antibody was detected by ForteBio (BLI). […] An affinity detection procedure was as follows: equilibration for 60 s, binding for 180 s, and dissociation for 180 s.

[11] = biological target: T1, IL-9-His recombinant protein; assay: ELISA on coated IL-9-His, OD450; unit taken from the x axis, the table prints none
Method: as §3

[12] = biological target: T2, biotin-conjugated IL-9-Fc …; assay: flow cytometry blocking assay (IL9-IL9R blocking determination): serially diluted antibody against the binding of Biotin-IL-9-Fc to 293-IL-9R cells (IL-9R), MFI; unit taken from the x axis, the table prints none
[13] = bleomycin model, 21 d, HE staining

T4 sequence (P15248 19-144): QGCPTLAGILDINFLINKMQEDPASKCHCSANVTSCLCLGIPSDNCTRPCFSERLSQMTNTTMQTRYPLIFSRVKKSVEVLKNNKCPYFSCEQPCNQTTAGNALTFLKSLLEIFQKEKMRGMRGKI
T2 sequence (P15248 19-144 limits assumed, form in doubt): as the sequence (P15248 19-144) above
T1 sequence (P15248 19-144 limits assumed, form in doubt): as the sequence (P15248 19-144) above
T3 sequence (P15248 19-144): as above

## Cc1ccc(=O)n(-c2ccccc2)c1 [pirfenidone, reference compound]
[1]; bleomycin model, 21 d
  collagen fibers and fibrosis regions of lung tissues (Masson staining): significantly reduced
  fibrosis score: significantly reduce a fibrosis score
  lung tissue structures (HE staining): improved
[1]; [13]
  inflammation score: significantly reduce an inflammation score
[2]
  collagen fibers and fibrosis regions of lung tissues (Masson staining): significantly reduced
  inflammation score: significantly reduce an inflammation score
  fibrosis score: reduce a fibrosis score
  lung tissue structures (HE staining): improved

B1: 22-F2-E9-C8 chimeric antibody (CA4) (antibody, V domains shown)
VH: EVQVVESGPGLVKPSQSLSLTCSVTGSSFTSGYYWNWIRQFPGNKLEWMGYIRYDGSNNYNPSLKNRISITRDTSKNQFFLKLNSVTSEDTATYYCASYGSSYDAMDYWGQGTSVTVSS
VL: DIQLTQPPASLSASVGETVTITCRASENIDSYLAWYQQKQGKSPQLLVYAATLLADGVPSRFSGSGSGTQYSLKINSLQSEDVARYYCQHYYSTPWTFGGGTKLELK
[3]
  ELISA OD450: 2.63 OD450
[4]
  ELISA OD450: 2.45 OD450
[5]
  ELISA OD450: 2.59 OD450
[6]
  ELISA OD450: 2.43 OD450
[7]
  EC50: 2.96 µg/mL

B2: humanized antibody VH1-VL2 (hu.CA1) (antibody, V domains shown)
VH: EVQLKQSGAEVMKPGASVKVSCKATGYTFTGYWIEWVRLAPGHGLEWMGEILPGSGSTNYNQKFQGRVTFTADTSINTAYMELSRLRSDDTAIYYCARRTYYYGIPEDYWGQGTLVTVSS
VL: DIVMTQSQKFFSTSTGDRVTITCRASQNVGTNVAWHQQKPGQSPKPLIYSASYRYSGVPSRFTGSGSGTDFTLTISNLQSEDFAEYFCQQYNSYPLTFGAGTKLEIK
notes: IgG1 / kappa by the vectors pcDNA3.4-IgG1 and pcDNA3.4-IgKc; also called humanized VH1-VL2 antibody
[8]
  binding to IL-9: bind to IL-9 with high affinity
[9]
  Koff: 0.002535 s⁻¹
  Kon: 1.066e+06 M⁻¹ s⁻¹
[1]; bleomycin model, 21 d
  collagen fibers and fibrosis regions of lung tissues (Masson staining): significantly reduced
  fibrosis score: significantly reduce a fibrosis score
  lung tissue structures (HE staining): improved
[1]; [13]
  inflammation score compared with pirfenidone group: slightly lower than the pirfenidone group
  inflammation score: significantly reduce an inflammation score
[1]; bleomycin model, compared with negative and positive control groups, FIG. 8A
  body weights over time: changed in a same trend
[1]; conclusion from body weights in bleomycin and silica models
  safety: excellent safety
[2]
  collagen fibers and fibrosis regions of lung tissues (Masson staining): significantly reduced
  inflammation score: significantly reduce an inflammation score
  fibrosis score: reduce a fibrosis score
  lung tissue structures (HE staining): improved
[2]; compared with negative and positive control groups, FIG. 8B
  body weights over time: changed in a same trend
[10]
  Kd: 2.38 nM
  koff: 0.00253 s⁻¹
  kon: 1.07e+06 M⁻¹ s⁻¹
[11]
  EC50: 0.035 µg/mL
[12]
  EC50: 5.89 µg/mL

B3: CA1: human-mouse chimeric IgG1/kappa antibody with VH and VL of murine 38-D8-C7-G9 (antibody, V domains shown)
VH: EVQLKQSGAELMKPGASVKLSCKATGYTFTGYWIEWVKLRPGHGLEWIGEILPGSGSTNYNEEFKGKATFTADTSSNTAYMQLNSLTTEDSAIYYCARRTYYYGIPEDYWGQGTSVTVSS
VL: B2 VL with F11M, T15V, T20S, I21V, R24K, S60D, L78V, F83L, I106L
[9]
  Koff: 0.0009336 s⁻¹
  Kon: 2.13e+06 M⁻¹ s⁻¹

B4: humanized antibody VH2-VL4 (hu.CA3) (antibody, V domains shown)
VH: B2 VH with K5V, H43Q, I76T, R85S, D89E
VL: B2 VL with Q8P, F11L, T13A, T15V, R24K, S80P
notes: IgG1 / kappa by the vectors pcDNA3.4-IgG1 and pcDNA3.4-IgKc
[11]
  EC50: 0.0329 µg/mL
[12]
  EC50: 11.7 µg/mL

B5: humanized antibody VH1-VL4 (hu.CA2) (antibody, V domains shown)
VH: B2 VH
VL: B2 VL with Q8P, F11L, T13A, T15V, R24K, S80P
notes: IgG1 / kappa by the vectors pcDNA3.4-IgG1 and pcDNA3.4-IgKc; also called humanized VH1-VL4 antibody
[8]
  binding to IL-9: bind to IL-9 with high affinity
[9]
  Koff: 0.002206 s⁻¹
  Kon: 1.165e+06 M⁻¹ s⁻¹
[10]
  Kd: 1.89 nM
  koff: 0.00221 s⁻¹
  kon: 1.16e+06 M⁻¹ s⁻¹
[11]
  EC50: 0.0127 µg/mL
[12]
  EC50: 8.18 µg/mL

B6: humanized antibody VH3-VL4 (hu.CA4) (antibody, V domains shown)
VH: B2 VH with K5V, H43Q, F64L, I76T, S84R, R85S
VL: B2 VL with Q8P, F11L, T13A, T15V, R24K, S80P
notes: as for B4
[11]
  EC50: 0.0323 µg/mL
[12]
  EC50: 11.3 µg/mL

B7: 29-B9-F5-B6 chimeric antibody (CA3) (antibody, V domains shown)
VH: EVQLQESGAELMKPGASVKISCKATGYTFSSYWIEWVKQRPGHGLEWIGQILPGSGSNNYNERFKGKATFTADTSSNTAYMQLSSLTSEDSAVYYCAREGNYGEAWFAYWGQGTLVTVSA
VL: DILLTQSPATLSVTPGDSVSLSCRASQSISNNLHWYQQKSHESPRLLIKYASQSMSGIPSRFSGSGSGTDFTLSINSVETEDFGMYFCQQSNSWPLTFGAGTKLELK
[3]
  ELISA OD450: 2.71 OD450
[4]
  ELISA OD450: 2.56 OD450
[5]
  ELISA OD450: 2.62 OD450
[6]
  ELISA OD450: 2.45 OD450
[7]
  EC50: 8.47 µg/mL
